In article PMC5889556:
Each block holds one molecule with its values, some of them ahead of it.

Experiments:
[1] = target: FtsZ (Bacillus subtilis) (UniProt P17865); conditions: cited from earlier work
[2] = target: ClpXP complex (B. subtilis) (UniProt P50866)

Molecule: UgtP (from UniProt P54166)
- Kd [1]: 38 nM

- in vitro ClpXP proteolysis assay with 5 mM ATP: percent of purified His-UgtP degraded after 45 min, by anti-His immunoblot [2]: 88%
- in vitro ClpXP proteolysis assay without ATP: percent of purified His-UgtP degraded, by anti-His immunoblot [2]: 13%
B1: His-UgtP (enzyme)
chain: MNTNKRVLILTANYGNGHVQVAKTLYEQCVRLGFQHVTVSNLYQESNPIVSEVTQYLYLKSFSIGKQFYRLFYYGVDKIYNKRKFNIYFKMGNKRLGELVDEHQPDIIINTFPMIVVPEYRRRTGRVIPTFNVMTDFCLHKIWVHENVDKYYVATDYVKEKLLEIGTHPSNVKITGIPIRPQFEESMPVGPIYKKYNLSPNKKVLLIMAGAHGVLKNVKELCENLVKDDQVQVVVVCGKNTALKESLSALEAENGDKLKVLGYVERIDELFRITDCMITKPGGITLTEATAIGVPVILYKPVPGQEKENANFFEDRGAAIVVNRHEEILESVTSLLADEDTLHRMKKNIKDLHLANSSEVILEDILKESEMMTAKQKAKVLS
